Molecular target: Complement C2 (human) (human) (UniProt P06681)
Assay: cell-based or functional assay

Sequence of Complement C2 (human) (human) (P06681 21-752 limits assumed): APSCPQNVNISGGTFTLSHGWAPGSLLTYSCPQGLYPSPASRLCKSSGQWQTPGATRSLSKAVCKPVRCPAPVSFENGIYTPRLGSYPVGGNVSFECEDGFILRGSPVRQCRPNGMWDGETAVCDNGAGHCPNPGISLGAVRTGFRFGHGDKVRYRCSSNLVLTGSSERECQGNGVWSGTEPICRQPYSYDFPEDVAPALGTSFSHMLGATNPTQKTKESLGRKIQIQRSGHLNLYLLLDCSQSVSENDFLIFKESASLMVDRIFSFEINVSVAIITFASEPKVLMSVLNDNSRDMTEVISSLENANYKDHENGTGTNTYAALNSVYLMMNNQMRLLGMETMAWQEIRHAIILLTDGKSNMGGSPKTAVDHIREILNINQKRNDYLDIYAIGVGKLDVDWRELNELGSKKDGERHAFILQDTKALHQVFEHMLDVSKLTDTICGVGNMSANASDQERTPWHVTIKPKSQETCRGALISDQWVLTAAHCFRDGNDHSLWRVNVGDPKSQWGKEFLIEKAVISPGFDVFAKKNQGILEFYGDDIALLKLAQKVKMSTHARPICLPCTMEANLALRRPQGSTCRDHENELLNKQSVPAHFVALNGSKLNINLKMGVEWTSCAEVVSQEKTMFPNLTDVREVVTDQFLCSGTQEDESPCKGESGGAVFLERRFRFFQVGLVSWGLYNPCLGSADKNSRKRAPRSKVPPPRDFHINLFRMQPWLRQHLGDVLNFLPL

Substance | IC50 of the proteases for cleavage of C2 (Western blot densitometry, 5% human plasma, 1 h 37 C)
wildtype MT-SP1 protease domain (CB200) (from UniProt Q9Y5Y6 615-855) (enzyme) | 15.7 nM
modified MT-SP1 CB42 (Y146E) protease domain (from UniProt Q9Y5Y6 615-855) (enzyme) | 11.9 nM
